Laboratory results taken from patent US20100169988A1 (published 2010).

What follows are binders tested against APP-TAP-AICD (human, UniProt P05067 18-695) (assay: streptavidin purification of APP-TAP-AICD from brain homogenate; iTRAQ 116/114, transgenic mouse 75 vs control mouse 72; MALDI-TOF/TOF;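 also: relative protein abundance in the transgenic versus control pull-down, limited to proteins with high quality scores and above-average enrichment, without full normalization across the whole measurement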).
Text: Shown are all proteins that have high quality scores and are enriched above average in the m75 sample. Purified bait protein is given underlined. Other already known interaction partners of AICD or putatively biologically relevant proteins are given in bold. As full normalization over the entire measurement was not possible through the GPS explorer software suite, this conservative estimate had to be taken for determining the enriched vs. the non-enriched proteins. […] Ranking is in order of abundance ratio.

iTRAQ ratio	Binder
3.76	Glutamine synthetase (Glutamate-ammonia ligase) (enzyme, mouse, UniProt P15105 2-373, looked up) ATSASSHLNKGIKQMYMSLPQGEKVQAMYIWVDGTGEGLRCKTRTLDCEPKCVEELPEWNFDGSSTFQSEGSNSDMYLHPVAMFRDPFRKDPNKLVLCEVFKYNRKPAETNLRHICKRIMDMVSNQHPWFGMEQEYTLMGTDGHPFGWPSNGFPGPQGPYYCGVGADKAYGRDIVEAHYRACLYAGVKITGTNAEVMPAQWEFQIGPCEGIRMGDHLWIARFILHRVCEDFGVIATFDPKPIPGNWNGAGCHTNFSTKAMREENGLKCIEEAIDKLSKRHQYHIRAYDPKGGLDNARRLTGFHETSNINDFSAGVANRGASIRIPRTVGQEKKGYFEDRRPSANCDPYAVTEAIVRTCLLNETGDEPFQYKN
4.54	Glyceraldehyde-3-phosphate dehydrogenase (GAPDH) (enzyme) not shown
4.61	Triosephosphate isomerase (TIM) (Triose-phosphate isomerase) (enzyme, mouse, UniProt P17751 2-249, looked up) APTRKFFVGGNWKMNGRKKCLGELICTLNAANVPAGTEVVCAPPTAYIDFARQKLDPKIAVAAQNCYKVTNGAFTGEISPGMIKDLGATWVVLGHSERRHVFGESDELIGQKVSHALAEGLGVIACIGEKLDEREAGITEKVVFEQTKVIADNVKDWSKVVLAYEPVWAIGTGKTATPQQAQEVHEKLRGWLKSNVNDGVAQSTRIIYGGSVTGATCKELASQPDVDGFLVGGASLKPEFVDIINAKQ
4.71	Pyruvate kinase; isozyme M2 (enzyme, also called pyruvate kinase isozyme M1/2) not shown
4.61	Phosphate carrier protein; mitochondrial precursor (PTP) (other, mouse, UniProt Q8VEM8 46-357, looked up) AVEEYSCEFGSMKYYALCGFGGVLSCGLTHTAVVPLDLVKCRMQVDPQKYKGIFNGFSITLKEDGVRGLAKGWAPTLIGYSMQGLCKFGFYEVFKALYSNILGEENTYLWRTSLYLASSASAEFFADIALAPMEAAKVRIQTQPGYANTLREAVPKMYKEEGLNAFYKGVAPLWMRQIPYTMMKFACFERTVEALYKFVVPKPRSECTKAEQLVVTFVAGYIAGVFCAIVSHPADSVVSVLNKEKGSTASQVLQRLGFRGVWKGLFARIIMIGTLTALQWFIYDSVKVYFRLPRPPPPEMPESLKKKLGLTE
4.68	Ubiquitin carboxyl-terminal hydrolase isozyme L1 (UCH-L1) (enzyme, mouse, UniProt Q9R0P9 1-220, looked up, also called UCHL1_MOUSE) MQLKPMEINPEMLNKVLAKLGVAGQWRFADVLGLEEETLGSVPSPACALLLLFPLTAQHENFRKKQIEELKGQEVSPKVYFMKQTIGNSCGTIGLIHAVANNQDKLEFEDGSVLKQFLSETEKLSPEDRAKCFEKNEAIQAAHDSVAQEGQCRVDDKVNFHFILFNNVDGHLYELDGRMPFPVNHGASSEDSLLQDAAKVCREFTEREQGEVRFSAVALC
3.81	Vacuolar ATP synthase catalytic subunit A; ubiquitous isoform (enzyme, also called VATA1_MOUSE) MDFSKLPKIRDEDKESTFGYVHGVSGPVVTACDMAGAAMYELVRVGHSELVGEIIRLEGDMATIQVYEETSGVSVGDPVLRTGKPLSVELGPGIMGAIFDGIQRPLSDISSQTQSIYIPRGVNVSALSRDIKWEFIPSKNLRVGSHITGGDIYGIVNENSLIKHKIMLPPRNRGSVTYIAPPGNYDASDVVLELEFEGVKEKFSMVQVWPVRQVRPVTEKLPANHPLLTGQRVLDALFPCVQGGTTAIPGAFGCGKTVISQSLSKYSNSDVIIYVGCGERGNEMSEVLRDFPELTMEVDGKVESIMKRTALVANTSNMPVAAREASIYTGITLSEYFRDMGYHVSMMADSTSRWAEALREISGRLAEMPADSGYPAYLGARLASFYERAGRVKCLGNPEREGSVSIVGAVSPPGGDFSDPVTSATLGIVQVFWGLDKKLAQRKHFPSVNWLISYSKYMRALDEYYDKHFTEFVPLRTKAKEILQEEEDLAEIVQLVGKASLAETDKITLEVAKLIKDDFLQQNGYTPYDRFCPFYKTVGMLSNMISFYDMARRAVETTAQSDNKITWSIIREHMGEILYKLSSMKFKDPVKDGEAKIKADYAQLLEDMQNAFRSLED
5.96	Malate dehydrogenase; cytoplasmic (enzyme, mouse, UniProt P14152 2-334, looked up) SEPIRVLVTGAAGQIAYSLLYSIGNGSVFGKDQPIILVLLDITPMMGVLDGVLMELQDCALPLLQDVIATDKEEIAFKDLDVAVLVGSMPRREGMERKDLLKANVKIFKSQGTALEKYAKKSVKVIVVGNPANTNCLTASKSAPSIPKENFSCLTRLDHNRAKSQIALKLGVTADDVKNVIIWGNHSSTQYPDVNHAKVKLQGKEVGVYEALKDDSWLKGEFITTVQQRGAAVIKARKLSSAMSAAKAIADHIRDIWFGTPEGEFVSMGVISDGNSYGVPDDLLYSFPVVIKNKTWKFVEGLPINDFSREKMDLTAKELTEEKETAFEFLSSA
3.99	L-lactate dehydrogenase B chain (LDH-B) (LDH heart subunit) (enzyme) not shown
3.82	Synaptotagmin-1 (Synaptotagmin I) (SytI) (p65) (other, mouse, UniProt P46096 1-421, looked up, also called SYT1_MOUSE) MVSASRPEALAAPVTTVATLVPHNATEPASPGEGKEDAFSKLKQKFMNELHKIPLPPWALIAIAIVAVLLVVTCCFCVCKKCLFKKKNKKKGKEKGGKNAINMKDVKDLGKTMKDQALKDDDAETGLTDGEEKEEPKEEEKLGKLQYSLDYDFQNNQLLVGIIQAAELPALDMGGTSDPYVKVFLLPDKKKKFETKVHRKTLNPVFNEQFTFKVPYSELGGKTLVMAVYDFDRFSKHDIIGEFKVPMNTVDFGHVTEEWRDLQSAEKEEQEKLGDICFSLRYVPTAGKLTVVILEAKNLKKMDVGGLSDPYVKIHLMQNGKRLKKKKTTIKKNTLNPYYNESFSFEVPFEQIQKVQVVVTVLDYDKIGKNDAIGKVFVGYNSTGAELRHWSDMLANPRRPIAQWHTLQVEEEVDAMLAVKK

Second part, the binder before the results:

Binder	iTRAQ ratio
Creatine kinase; B chain (enzyme) not shown	5.32
Alpha enolase (2-phospho-D-glycerate hydro-lyase) (Non-neural enolase) (NNE) (enzyme, mouse, UniProt P17182 2-434, looked up) SILRIHAREIFDSRGNPTVEVDLYTAKGLFRAAVPSGASTGIYEALELRDNDKTRFMGKGVSQAVEHINKTIAPALVSKKVNVVEQEKIDKLMIEMDGTENKSKFGANAILGVSLAVCKAGAVEKGVPLYRHIADLAGNPEVILPVPAFNVINGGSHAGNKLAMQEFMILPVGASSFREAMRIGAEVYHNLKNVIKEKYGKDATNVGDEGGFAPNILENKEALELLKTAIAKAGYTDQVVIGMDVAASEFYRSGKYDLDFKSPDDPSRYITPDQLADLYKSFVQNYPVVSIEDPFDQDDWGAWQKFTASAGIQVVGDDLTVTNPKRIAKAASEKSCNCLLLKVNQIGSVTESLQACKLAQSNGWGVMVSHRSGETEDTFIADLVVGLCTGQIKTGAPCRSERLAKYNQILRIEEELGSKAKFAGRSFRNPLAK	3.9
Aspartate aminotransferase; cytoplasmic (Transaminase A) (enzyme, mouse, UniProt P05201 2-413, looked up) APPSVFAQVPQAPPVLVFKLTADFRDDPDPRKVNLGVGAYRTDESQPWVLPVVRKVEQKIANDNSLNHEYLPILGLAEFRSCASRLVLGDNSLAIRENRVGGVQSLGGTGALRIGADFLGRWYNGTDNKNTPIYVSSPTWENHNAVFSAAGFKDIRPYCYWDAEKRGLDLQGFLNDLENAPEFSIFVLHACAHNPTGTDPTPEQWKQIAAVMQRRFLFPFFDSAYQGFASGDLEKDAWAIRYFVSEGFELFCAQSFSKNFGLYNERVGNLTVVGKESDSVLRVLSQMEKIVRITWSNPPAQGARIVAATLSDPELFKEWKGNVKTMADRILTMRSELRARLEALKTPGTWSHITEQIGMFSFTGLNPKQVEYLVNEKHIYLLPSGRINMCGLTTKNLDYVATSIHEAVTKIQ	4.04
Excitatory amino acid transporter 2 (Sodium-dependent glutamate/aspartate transporter 2) (other, mouse, UniProt P43006 1-572, looked up, also called EAA2_MOUSE; GLT-1) MASTEGANNMPKQVEVRMHDSHLSSDEPKHRNLGMRMCDKLGKNLLLSLTVFGVILGAVCGGLLRLASPIHPDVVMLIAFPGDILMRMLKMLILPLIISSLITGLSGLDAKASGRLGTRAMVYYMSTTIIAAVLGVILVLAIHPGNPKLKKQLGPGKKNDEVSSLDAFLDLIRNLFPENLVQACFQQIQTVTKKVLVAPPSEEANTTKAVISMLNETMNEAPEETKIVIKKGLEFKDGMNVLGLIGFFIAFGIAMGKMGEQAKLMVEFFNILNEIVMKLVIMIMWYSPLGIACLICGKIIAIKDLEVVARQLGMYMITVIVGLIIHGGIFLPLIYFVVTRKNPFSFFAGIFQAWITALGTASSAGTLPVTFRCLEDNLGIDKRVTRFVLPVGATINMDGTALYEAVAAIFIAQMNGVILDGGQIVTVSLTATLASIGAASIPSAGLVTMLLILTAVGLPTEDISLLVAVDWLLDRMRTSVNVVGDSFGAGIVYHLSKSELDTIDSQHRMQEDIEMTKTQSIYDDKNHRESNSNQCVYAAHNSVVIDECKVTLAANGKSADCSVEEEPWKREK	4.44
Aspartate aminotransferase; mitochondrial precursor (Transaminase A) (enzyme, mouse, UniProt P05202 30-430, looked up) SSWWTHVEMGPPDPILGVTEAFKRDTNSKKMNLGVGAYRDDNGKPYVLPSVRKAEAQIAAKNLDKEYLPIGGLAEFCKASAELALGENNEVLKSGRFVTVQTISGTGALRVGASFLQRFFKFSRDVFLPKPSWGNHTPIFRDAGMQLQGYRYYDPKTCGFDFSGALEDISKIPEQSVLLLHACAHNPTGVDPRPEQWKEIASVVKKKNLFAFFDMAYQGFASGDGDKDAWAVRHFIEQGINVCLCQSYAKNMGLYGERVGAFTVVCKDAEEAKRVESQLKILIRPLYSNPPLNGARIAATILTSPDLRKQWLQEVKGMADRIISMRTQLVSNLKKEGSSHNWQHITDQIGMFCFTGLKPEQVERLTKEFSVYMTKDGRISVAGVTSGNVGYLAHAIHQVTK	3.51
Clathrin light chain A (Lca) (other, mouse, UniProt O08585 1-235, looked up) MAELDPFGAPAGAPGGPALGNGVAGAGEEDPAAAFLAQQESEIAGIENDEAFAILDGGAPGRATRRAAGGPDAVDGVMNGEYYQESNGPTDSYAAISEVDRLQSEPESIRKWREEQTERLEALDANSRKQEAEWKEKAIKELEEWYARQDEQLQKTKANNRVADEAFYKQPFADLIGYVAAEEAFVNDIDESSPGTEWERVARLCDFNPKSSKQAKDVSRMRSVLISLKQAPLVH	3.98
Fructose-bisphosphate aldolase C (Brain-type aldolase) (Aldolase 3) (enzyme, mouse, UniProt P05063 2-363, looked up) PHSYPALSAEQKKELSDIALRIVTPGKGILAADESVGSMAKRLSQIGVENTEENRRLYRQVLFSADDRVKKCIGGVIFFHETLYQKDDNGVPFVRTIQDKGILVGIKVDKGVVPLAGTDGETTTQGLDGLLERCAQYKKDGADFAKWRCVLKISDRTPSALAILENANVLARYASICQQNGIVPIVEPEILPDGDHDLKRCQYVTEKVLAAVYKALSDHHVYLEGTLLKPNMVTPGHACPIKYSPEEIAMATVTALRRTVPPAVPGVTFLSGGQSEEEASLNLNAINRCPLPRPWALTFSYGRALQASALNAWRGQRDNAGAATEEFIKRAEMNGLAAQGRYEGSGDGGAAAQSLYIANHAY	3.77
ATP synthase gamma chain; mitochondrial precursor (enzyme, mouse, UniProt Q91VR2 26-298, looked up) ATLKDITRRLKSIKNIQKITKSMKMVAAAKYARAERELKPARVYGTGSLALYEKADIKAPEDKKKHLIIGVSSDRGLCGAIHSSVAKQMKNEVAALTAAGKEVMIVGVGEKIKGILYRTHSDQFLVSFKDVGRKPPTFGDASVIALELLNSGYEFDEGSIIFNQFKSVISYKTEEKPIFSLNTIATAETMSIYDDIDADVLQNYQEYNLANLIYYSLKESTTSEQSARMTAMDNASKNASDMIDKLTLTFNRTRQAVITKELIEIISGAAALD	3.98
